One experiment concerns the target T1, mouse rI-domain (Mus musculus, UniProt P05555).
T1 construct: Recombinant human and mouse I-domain proteins were made and purified as previously described; made in house
The experiment can be described thus: Surface plasmon resonance, immobilized mouse rI-domain. The conditions noted are these: purified pilin 0.125-2 μM; NCDI = no concentration-dependent interaction (no binding of ≤2 μM). On the procedure: (§1) SPR analyses were performed using a Biacore S200 system (GE Healthcare Life Sciences, Parramatta, NSW, Australia). Samples were analyzed at 25°C in phosphate-buffered saline (PBS) at a flow rate of 10 μl/min and by using single-cycle kinetics. Human rI-domain, mouse rI-domain, and human rCR3 were immobilized onto separate cells of a Series S CM5 sensor chip using an NHS capture kit (both from GE Healthcare Life Sciences) for purified pilin experiments. For experiments in which pilin-glycan-like structures were examined, human rI-domain and rCR3 were immobilized onto separate cells of a CM5 chip. A blank immobilization was used as a control/reference on all chips. MS11 wild-type and MS11 pglA pilin were serially diluted from 2 μM to 0.125 μM in PBS. Glycans (Dextra Laboratories, Reading, UK) (Table 2), resembling the gonococcal Gal(α1-3)diNAcBac pilin-linked glycan, were serially diluted from 2 μM to 0.0078 μM in PBS. Affinity data points were taken at 15 s after injection to avoid an artefactual signal resulting from bulk transport. SPR sensorgrams were analyzed using Biacore Evaluation software (GE Healthcare Life Sciences).
On the technique in general: In SPR one partner is held on a chip, and binding of the other changes the refractive index at the surface.

In a further experiment the target is T2, human rI-domain (Homo sapiens, UniProt P11215).
T2 construct: Recombinant human and mouse I-domain proteins were made and purified as previously described; made in house
T2 sequence (P11215 150-328 limits assumed): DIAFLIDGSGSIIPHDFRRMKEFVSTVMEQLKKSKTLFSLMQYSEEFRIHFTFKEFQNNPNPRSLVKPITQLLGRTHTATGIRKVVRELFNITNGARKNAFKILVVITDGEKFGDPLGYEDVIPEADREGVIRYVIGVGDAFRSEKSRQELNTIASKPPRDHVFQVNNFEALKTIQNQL
The experiment is described as follows: Surface plasmon resonance, immobilized human rI-domain. It is filed as binding. The note with it: purified pilin 0.125-2 μM; NCDI = no concentration-dependent interaction (no binding of ≤2 μM); read-out: KD, rI-domain, Human. On the procedure:
as §1

T1 sequence (P05555 164-338): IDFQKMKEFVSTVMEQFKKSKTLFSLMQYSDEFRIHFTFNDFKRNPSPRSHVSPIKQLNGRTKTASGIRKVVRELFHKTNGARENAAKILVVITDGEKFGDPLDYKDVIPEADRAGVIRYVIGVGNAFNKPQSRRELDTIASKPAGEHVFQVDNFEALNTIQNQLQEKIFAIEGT

B1: MS11 wild type: N. gonorrhoeae MS11 pilin modified with the Gal(α1-3)diNAcBac disaccharide glycan (protein, UniProt P02974 8-165, looked up)
Type IV major pilin protein …: FTLIELMIVIAIVGILAAVALPAYQDYTARAQVSEAILLAEGQKSAVTEYYLNHGKWPENNTSAGVASPPSDIKGKYVKEVEVKNGVVTATMLSSGVNNEIKGKKLSLWARRENGSVKWFCGQPVTRTDDDTVADAKDGKEIDTKHLPSTCRDNFDAK
modifications: Gal(α1-3)diNAcBac disaccharide glycan
notes: N. gonorrhoeae MS11 pilin modified with the Gal(α1-3)diNAcBac disaccharide glycan
For the molecule B1, the “KD, rI-domain, Mouse” value with mouse rI-domain was “NCDI”. The Kd (as a rule, the constant that tells how readily two partners part at equilibrium) with human rI-domain was 349 ± 45 nM.

Source of the values: publication PMC7064771, “Repurposed Drugs That Block the Gonococcus-Complement Receptor 3 Interaction Can Prevent and Cure Gonococcal Infection of Primary Human Cervical Epithelial Cells” (mBio, 2020).
